Assays:
FOXL2 = target: T1, FOXL2 (Homo sapiens, UniProt P58012 1-376); experiment: pulldown; 37 C; 10 mM HEPES, 140 mM KCl, 25 mM NaCl, 1 mM MgCl2, 0.1 mM CaCl2; equimolar mix, tRNA; conditions: tags: His-SUMO, cleaved
T1 sequence: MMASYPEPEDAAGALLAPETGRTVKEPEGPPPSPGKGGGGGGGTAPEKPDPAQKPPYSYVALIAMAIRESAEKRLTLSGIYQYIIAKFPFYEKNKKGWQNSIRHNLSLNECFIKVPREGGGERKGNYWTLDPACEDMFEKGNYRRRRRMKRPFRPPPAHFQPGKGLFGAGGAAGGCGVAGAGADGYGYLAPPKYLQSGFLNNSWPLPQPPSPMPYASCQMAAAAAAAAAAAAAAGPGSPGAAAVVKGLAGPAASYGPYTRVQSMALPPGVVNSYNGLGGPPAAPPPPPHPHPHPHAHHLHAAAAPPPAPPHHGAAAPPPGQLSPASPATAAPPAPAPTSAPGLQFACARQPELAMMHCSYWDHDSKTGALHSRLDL

FOXL2 C134W = target: T2, FOXL2 C134W (Homo sapiens, UniProt P58012 1-376, C134W); experiment: as above; conditions: tags: His-SUMO, cleaved
T2 sequence: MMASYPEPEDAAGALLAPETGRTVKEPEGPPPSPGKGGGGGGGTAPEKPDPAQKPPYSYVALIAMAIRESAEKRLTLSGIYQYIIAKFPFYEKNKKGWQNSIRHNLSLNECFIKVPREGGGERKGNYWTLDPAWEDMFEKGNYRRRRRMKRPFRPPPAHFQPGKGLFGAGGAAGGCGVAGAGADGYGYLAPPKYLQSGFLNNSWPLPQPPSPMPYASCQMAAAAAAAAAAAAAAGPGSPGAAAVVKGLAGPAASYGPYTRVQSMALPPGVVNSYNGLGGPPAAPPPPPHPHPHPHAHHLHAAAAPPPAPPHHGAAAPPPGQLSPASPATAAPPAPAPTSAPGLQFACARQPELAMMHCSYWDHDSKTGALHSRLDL

FOXL2 wt (recombinant) [1] = target: T3, FOXL2 wt (recombinant) (UniProt P58012 1-376); experiment: pull-down competition + HTS; mixed with mutRF001; 10 mM HEPES (pH 7.5), 140 mM KCl, 25 mM NaCl, 1 mM MgCl2, 0.1 mM CaCl2, 0.001% IGEPAL, 100 nM yeast tRNA, 50 nM total aptamers, 37 C, 30 min; Li+ variant: 140 mM LiCl replaces KCl/NaCl; conditions: protein: recombinant; tags: His-SUMO tag cleaved; putative two-tier intramolecular G4
T3 sequence: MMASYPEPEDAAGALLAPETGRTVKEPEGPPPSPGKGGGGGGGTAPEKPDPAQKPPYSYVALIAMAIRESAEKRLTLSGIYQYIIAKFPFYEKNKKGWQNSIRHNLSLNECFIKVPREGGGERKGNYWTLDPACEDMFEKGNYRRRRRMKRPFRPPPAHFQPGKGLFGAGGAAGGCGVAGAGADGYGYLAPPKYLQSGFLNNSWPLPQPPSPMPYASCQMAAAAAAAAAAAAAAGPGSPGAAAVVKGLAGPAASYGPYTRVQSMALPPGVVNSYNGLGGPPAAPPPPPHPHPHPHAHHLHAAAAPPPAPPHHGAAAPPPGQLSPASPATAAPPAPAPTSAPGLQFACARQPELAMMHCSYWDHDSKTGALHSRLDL

FOXL2 C134W (mutFOXL2) [2] = target: T4, FOXL2 C134W (mutFOXL2) (UniProt P58012 1-376, C134W); experiment: pull-down competition + HTS; K+/Na+ buffer, tRNA competitor; 10 mM HEPES (pH 7.5), 140 mM KCl, 25 mM NaCl, 1 mM MgCl2, 0.1 mM CaCl2, 0.001% IGEPAL, 100 nM yeast tRNA, 50 nM total aptamers, 37 C, 30 min; Li+ variant: 140 mM LiCl replaces KCl/NaCl; conditions: protein: recombinant; tags: His-SUMO tag cleaved; putative two-tier intramolecular G4
T4 sequence: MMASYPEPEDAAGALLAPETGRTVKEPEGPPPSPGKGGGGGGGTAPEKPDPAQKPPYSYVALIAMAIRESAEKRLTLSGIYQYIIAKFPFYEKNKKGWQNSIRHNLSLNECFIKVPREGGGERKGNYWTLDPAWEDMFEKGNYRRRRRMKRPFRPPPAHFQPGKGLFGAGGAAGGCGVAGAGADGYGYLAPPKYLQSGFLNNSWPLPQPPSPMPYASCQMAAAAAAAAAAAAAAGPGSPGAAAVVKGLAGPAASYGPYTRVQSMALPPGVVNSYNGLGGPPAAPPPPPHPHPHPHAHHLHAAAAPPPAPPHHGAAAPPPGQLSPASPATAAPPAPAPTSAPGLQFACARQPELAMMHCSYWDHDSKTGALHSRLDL

FOXL2 wt (recombinant) [3] = target: T3, FOXL2 wt (recombinant); experiment: pull-down competition + HTS; mixed with RF000/RF002 DNA and scr50 RNA; 10 mM HEPES (pH 7.5), 140 mM KCl, 25 mM NaCl, 1 mM MgCl2, 0.1 mM CaCl2, 0.001% IGEPAL, 100 nM yeast tRNA, 50 nM total aptamers, 37 C, 30 min; Li+ variant: 140 mM LiCl replaces KCl/NaCl; conditions: protein: recombinant; tags: His-SUMO tag cleaved; putative two-tier intramolecular G4
FOXL2 wt (recombinant) [4] = target: T3, FOXL2 wt (recombinant); experiment: pull-down competition + HTS; 140 mM LiCl, no K+/Na+; 10 mM HEPES (pH 7.5), 140 mM KCl, 25 mM NaCl, 1 mM MgCl2, 0.1 mM CaCl2, 0.001% IGEPAL, 100 nM yeast tRNA, 50 nM total aptamers, 37 C, 30 min; Li+ variant: 140 mM LiCl replaces KCl/NaCl; conditions: protein: recombinant; tags: His-SUMO tag cleaved; putative two-tier intramolecular G4
FOXL2 wt (recombinant) [5] = target: T3, FOXL2 wt (recombinant); experiment: pull-down competition + HTS; K+/Na+ buffer, tRNA competitor; 10 mM HEPES (pH 7.5), 140 mM KCl, 25 mM NaCl, 1 mM MgCl2, 0.1 mM CaCl2, 0.001% IGEPAL, 100 nM yeast tRNA, 50 nM total aptamers, 37 C, 30 min; Li+ variant: 140 mM LiCl replaces KCl/NaCl; conditions: protein: recombinant; tags: His-SUMO tag cleaved; putative two-tier intramolecular G4
FOXL2 wt (recombinant) [6] = target: T3, FOXL2 wt (recombinant); experiment: pull-down competition + HTS; K+/Na+ buffer; basically absent; 10 mM HEPES (pH 7.5), 140 mM KCl, 25 mM NaCl, 1 mM MgCl2, 0.1 mM CaCl2, 0.001% IGEPAL, 100 nM yeast tRNA, 50 nM total aptamers, 37 C, 30 min; Li+ variant: 140 mM LiCl replaces KCl/NaCl; conditions: protein: recombinant; tags: His-SUMO tag cleaved; unable to fold into G4
FOXL2 C134W (mutFOXL2) [7] = target: T4, FOXL2 C134W (mutFOXL2); experiment: as above; conditions: protein: recombinant; tags: His-SUMO tag cleaved; unable to fold into G4

B1: scr50 (ssRNA)
RNA: GGGAGAGUAUCCGUUGAGGCUGAGGGACACUCGCUGUUUUCGAAAUUACCCUUUAUGCGCGGGUAUUGAACCAAGAUCGGAAGAGCGUCGUGUAGG
binding result (FOXL2): no binding | binding result (FOXL2 C134W): no binding

B2: RF002 DNA (ssDNA)
DNA: GGGAGAGTATCCGTTGAGGCTGATCGGACTTTGGTGGTTGGAGGACGGATGGACGGAGGTTTATTAGGCTCGCAGATCGGAAGAGCGTCGTGTAGG
binding result (FOXL2): no binding

B3: RF001 RNA (structured_RNA)
RNA: CGUCAUUUGGUGGAUGGCGGAAGGAGGCGGAGGACGGGAAAUUCUGGAAA
binding signal (FOXL2 wt (recombinant) [1]): > 10 fold enrichment RF001/mutRF001 vs no-protein control | binding result (FOXL2 C134W (mutFOXL2) [2]): binds

B4: RF004 (ssRNA)
RNA: GGGAGAGUAUCCGUUGAGGCUGAAUCUGCGACUGGCUGGAGGUGGACGGAUGGCUGGAGGCGAAAUUGGCUUAAGAUCGGAAGAGCGUCGUGUAGG
binding result (FOXL2): binds | binding result (FOXL2 C134W): binds

B5: RF004 RNA (structured_RNA)
RNA: AUCUGCGACUGGCUGGAGGUGGACGGAUGGCUGGAGGCGAAAUUGGCUUA
binding result (FOXL2 C134W (mutFOXL2) [2]): binds | binding result (FOXL2 wt (recombinant) [3]): binds

B6: RF002 RNA (structured_RNA)
RNA: UCGGACUUUGGUGGUUGGAGGACGGAUGGACGGAGGUUUAUUAGGCUCGC
binding result (FOXL2 wt (recombinant) [4]): binds | binding result (FOXL2 C134W (mutFOXL2) [2]): binds

B7: mutRF001 (ssRNA)
RNA: GGGAGAGUAUCCGUUGAGGCUGACGUCAUUUGAGUGAGUGAGCGAGAGAGAGUGCGUGAGAGACGAGAGCGUGAGAUCGGAAGAGCGUCGUGUAGG
binding result (FOXL2): no binding

B8: RF000 DNA (ssDNA)
DNA: GGGAGAGTATCCGTTGAGGCTGAGAGGTATTAAGAGGCGGAGGCGGAAGGATGGCGGAGGACCGACAGAGAAGAGATCGGAAGAGCGTCGTGTAGG
binding result (FOXL2): no binding

B9: RF000 RNA (structured_RNA)
RNA: GAGGUAUUAAGAGGCGGAGGCGGAAGGAUGGCGGAGGACCGACAGAGAAG
binding result (FOXL2 wt (recombinant) [5]): binds | binding result (FOXL2 C134W (mutFOXL2) [2]): binds

B10: RF002 (ssRNA)
RNA: GGGAGAGUAUCCGUUGAGGCUGAUCGGACUUUGGUGGUUGGAGGACGGAUGGACGGAGGUUUAUUAGGCUCGCAGAUCGGAAGAGCGUCGUGUAGG
binding result (FOXL2): binds | binding result (FOXL2 C134W): binds

B11: RF000 (ssRNA)
RNA: GGGAGAGUAUCCGUUGAGGCUGAGAGGUAUUAAGAGGCGGAGGCGGAAGGAUGGCGGAGGACCGACAGAGAAGAGAUCGGAAGAGCGUCGUGUAGG
binding result (FOXL2): binds | binding result (FOXL2 C134W): binds

B12: scr50 RNA (ssRNA)
RNA: GGGACACUCGCUGUUUUCGAAAUUACCCUUUAUGCGCGGGUAUUGAACCA
binding result (FOXL2 wt (recombinant) [6]): no binding | binding result (FOXL2 C134W (mutFOXL2) [7]): no binding

B13: RF004 DNA (ssDNA)
DNA: GGGAGAGTATCCGTTGAGGCTGAATCTGCGACTGGCTGGAGGTGGACGGATGGCTGGAGGCGAAATTGGCTTAAGATCGGAAGAGCGTCGTGTAGG
binding result (FOXL2): no binding

B14: RF001 (ssRNA)
RNA: GGGAGAGUAUCCGUUGAGGCUGACGUCAUUUGGUGGAUGGCGGAAGGAGGCGGAGGACGGGAAAUUCUGGAAAAGAUCGGAAGAGCGUCGUGUAGG
binding result (FOXL2): binds | binding result (FOXL2 C134W): binds

B15: RF001 DNA (ssDNA)
DNA: GGGAGAGTATCCGTTGAGGCTGACGTCATTTGGTGGATGGCGGAAGGAGGCGGAGGACGGGAAATTCTGGAAAAGATCGGAAGAGCGTCGTGTAGG
binding result (FOXL2): no binding

— PMC10711433, “The forkhead DNA-binding domain binds specific G2-rich RNA sequences”
